Data on one compound can be found in US5434135A, “Growth factor compositions, preparation and use” (Parikh; Indu, priority 1993, dated 1995).

Series [1] has as its system trypsin. The conditions noted are these: 3% trypsin, after one hour.
The conditions of series [2]: at one hour. How it is done: At the indicated times aliquots were withdrawn and the amount of intact parent peptide was determined as the area under the curve (AUC) of the A214 (absorbance at 214 nanometers) chromatogram;
In series [3] the test system is trypsin. The experiment in a line: in vitro. The note with it: 1% trypsin.

Take `CC[C@H](C)[C@@H]1NC(=O)[C@H](Cc2ccc(O)cc2)NC(=O)CNC(=O)[C@H](C(C)C)NC(=O)[C@H](C(C)C)NC(=O)[C@@H](NC(=O)[C@H](CC(N)=O)NC(=O)[C@@H]2CSSC[C@@H]3NC(=O)[C@H](Cc4ccc(O)cc4)NC(=O)CNC(=O)[C@H](CC(=O)O)NC(=O)[C@H](Cc4c[nH]cn4)NC(=O)[C@H](CO)NC(=O)[C@H](CC(C)C)NC(=O)[C@@H]4CCCN4C(=O)[C@@H](NC(=O)[C@H](CCC(=O)O)NC(=O)[C@H](CO)NC(=O)[C@H](CC(=O)O)NC(=O)[C@H](CO)NC(=O)[C@@H](N)CC(N)=O)CSSC[C@H](NC(=O)[C@H](C(C)C)NC(=O)CNC(=O)[C@H](CC(=O)O)NC(=O)[C@H](Cc4c[nH]cn4)NC(=O)[C@H](CC(C)C)NC3=O)C(=O)N[C@@H](CCSC)C(=O)N[C@@H](Cc3ccc(O)cc3)C(=O)N[C@@H]([C@@H](C)CC)C(=O)N[C@@H](CCC(=O)O)C(=O)N[C@@H](C)C(=O)N[C@@H](CC(C)C)C(=O)N[C@@H](CC(=O)O)C(=O)N[C@@H](CCCCN)C(=O)N[C@@H](Cc3ccc(O)cc3)C(=O)N[C@@H](C)C(=O)N2)CSSC[C@@H](C(=O)N[C@@H](CCC(N)=O)C(=O)N[C@@H](Cc2ccc(O)cc2)C(=O)N[C@@H](CCCNC(=N)N)C(=O)N[C@@H](CC(=O)O)C(=O)N[C@@H](CC(C)C)C(=O)N[C@@H](CCCCN)C(=O)N[C@@H](Cc2c[nH]c3ccccc23)C(=O)N[C@@H](Cc2c[nH]c3ccccc23)C(=O)N[C@@H](CCC(=O)O)C(=O)N[C@@H](CC(C)C)C(=O)N[C@@H](CCCNC(=N)N)C(=O)O)NC(=O)[C@H](CCCNC(=N)N)NC(=O)[C@H](CCC(=O)O)NC(=O)CNC1=O` [hEGF1-53]: the degradation in trypsin with trypsin [1] is 90-100%. The “degradation in gastric fluid” value in series [2] is reported as “approaching almost complete degradation”. Also, the metabolised at 1 h with trypsin [3] was ~50%.
